This is an account of results in IntAct's records for PubMed 17157788.

This test deals with aatf_human AATF (UniProt Q9NY61).
aatf_human AATF, sequence (Q9NY61 whole entry): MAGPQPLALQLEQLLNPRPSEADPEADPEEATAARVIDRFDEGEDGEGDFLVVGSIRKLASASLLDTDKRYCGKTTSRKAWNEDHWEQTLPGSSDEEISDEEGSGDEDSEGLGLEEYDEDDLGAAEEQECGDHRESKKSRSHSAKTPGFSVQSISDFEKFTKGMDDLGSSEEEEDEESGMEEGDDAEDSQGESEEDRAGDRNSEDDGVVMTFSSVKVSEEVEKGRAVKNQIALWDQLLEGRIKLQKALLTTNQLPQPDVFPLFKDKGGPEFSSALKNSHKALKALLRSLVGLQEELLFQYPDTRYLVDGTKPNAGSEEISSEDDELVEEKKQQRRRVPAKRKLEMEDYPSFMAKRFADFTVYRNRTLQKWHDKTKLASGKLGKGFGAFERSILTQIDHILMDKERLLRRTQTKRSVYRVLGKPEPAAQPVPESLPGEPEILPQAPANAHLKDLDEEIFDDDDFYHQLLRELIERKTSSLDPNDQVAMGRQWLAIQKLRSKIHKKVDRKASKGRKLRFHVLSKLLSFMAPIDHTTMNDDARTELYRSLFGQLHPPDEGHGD

In the case of “Serine/threonine-protein kinase ATR (Homo sapiens), Q13535 K2327R”, the “effect of a mutation on the interaction” value is reported as “disrupting interaction”.
